Assay [1] concerns the target Hck SH3 (Homo sapiens) (UniProt P08631). The conditions noted are these: cited from earlier work.
For assay [2], the target named is GST-Fyn SH3 domain fusion protein (wild type) (UniProt P06241). Put plainly: SPR; Biacore 3000, HBS buffer (10 mM Hepes-NaOH pH 7.4, 150 mM NaCl, 0.005% Tween-20), 25°C; GST-SH3 captured on CM5 chip via amine-coupled anti-GST antibody; NS5A 3 μM - 100 nM flowed over, in triplicate; 1:1 Langmuir fit. In general terms: SPR reads the build-up and loss of mass on a sensor chip optically.
Chain of GST-Fyn SH3 domain fusion protein (wild type) (P06241 82-143): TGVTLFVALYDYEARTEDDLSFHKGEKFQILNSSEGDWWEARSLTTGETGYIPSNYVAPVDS

The target of assay [3] is Hck SH3 (Homo sapiens) (UniProt P08631). The note with it: cited from earlier work. The source holds these as a separate data set.
Chain of Hck SH3 (Homo sapiens) (P08631 75-141): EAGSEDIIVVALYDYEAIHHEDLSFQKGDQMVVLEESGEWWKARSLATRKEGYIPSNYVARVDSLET

Read-outs that look alike come from different tables or passages of the source.

As usually defined, the Kd is a measure of binding affinity in units of concentration. Turning to Nef (from UniProt P04324), in assay [1], the Kd is 0.25 µM. A word on the koff: it is the first-order rate constant of dissociation. One may read the kon as the second-order rate constant of association. High values mean fast association, low ones slow association. In assay [2], “NS5A(Δ250), N-terminally truncated hepatitis C virus non-structural 5A protein (domain or fragment)” registered a koff of 0.00494 s⁻¹ and a kon of 9050 M⁻¹ s⁻¹.

Consider “Nef PxxPxR-containing peptide PxxPxR peptide (from UniProt P04324)”, for which the Kd in assay [3] was 91 µM.

The record behind these values is paper PMC2259325.
